Data set [1] concerns the target GST-Yap8-8aa N20Q;A23T;L26N;S29A;N31R;K35E;L37E;E39R (Saccharomyces cerevisiae) (UniProt Q06596). Briefly: fluorescence anisotropy. To be noted: FA: 10 mM Tris-HCl pH 8, 50 mM NaCl, 0.5% NP-40, 1 mM DTT, 5% glycerol, 1 nM DNA, 25C (half volume protein elution buffer). Biotin EMSA: LightShift 1x buffer ….
For data set [2], the target named is GST-Yap8-7aa A23T;L26N;S29A;N31R;K35E;L37E;E39R (Saccharomyces cerevisiae) (UniProt Q06596). Briefly: fluorescence anisotropy. To be noted: FA: 10 mM Tris-HCl pH 8, 50 mM NaCl, 0.5% NP-40, 1 mM DTT, 5% glycerol, 1 nM DNA, 25C (half volume protein elution buffer). Biotin EMSA: LightShift 1x buffer ….
For a further data set, the target named is T1, GST-Yap8-R7K,R11K (Saccharomyces cerevisiae, UniProt Q06596 1-294, R7K;R11K).
T1 sequence: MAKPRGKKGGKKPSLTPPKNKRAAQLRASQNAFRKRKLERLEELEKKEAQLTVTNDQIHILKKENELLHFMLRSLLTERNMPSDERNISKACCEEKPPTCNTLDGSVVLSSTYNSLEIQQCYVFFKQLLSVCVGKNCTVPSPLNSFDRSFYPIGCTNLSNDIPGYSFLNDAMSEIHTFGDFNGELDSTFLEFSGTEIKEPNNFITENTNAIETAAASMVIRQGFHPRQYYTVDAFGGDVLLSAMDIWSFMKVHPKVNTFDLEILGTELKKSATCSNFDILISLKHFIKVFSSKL
Briefly: EMSA; FA: 10 mM Tris-HCl pH 8, 50 mM NaCl, 0.5% NP-40, 1 mM DTT, 5% glycerol, 1 nM DNA, 25C (half volume protein elution buffer). Biotin EMSA: LightShift 1x buffer, 50 ng poly(dI-dC), 2.5% glycerol, 0.05% NP-40, 5 mM MgCl2, 20 fmol probe, RT 20 min. 32P EMSA: 10 mM Tris-HCl pH 8.0, 50 mM NaCl, 1 mM DTT, 0.05% NP-40, 100 ng poly(dI-dC), 6% glycerol, 4C 30 min. The following applies: protein: recombinant; tags: GST (N-term); chain copies: 2; blunt.

Another data set has as its target T2, GST-Yap8-G10A (Saccharomyces cerevisiae, UniProt Q06596 1-294, G10A).
T2 sequence: T1 sequence with K7R, G10A, K11R
The description is as above. To be noted: protein: recombinant; tags: GST (N-term); chain copies: 2; blunt.

The target of a further data set is T3, GST-Yap8-4aa (Saccharomyces cerevisiae, UniProt Q06596 1-294, A23T;L26N;S29A;N31R).
T3 sequence: T1 sequence with K7R, K11R, A23T, L26N, S29A, N31R
The description is as above. The following applies: protein: recombinant, tags: GST (N-term), chain copies: 2, blunt.

The next data set addresses T4, GST-Yap8-R11K (Saccharomyces cerevisiae, UniProt Q06596 1-294, R11K).
T4 sequence: T1 sequence with K7R
Described as above. To be noted: protein: recombinant; tags: GST (N-term); chain copies: 2; blunt.

Data set [3] concerns the target T5, GST-Yap8 WT (Saccharomyces cerevisiae, UniProt Q06596 1-294).
T5 sequence: T1 sequence with K7R, K11R
Briefly: fluorescence anisotropy; series c; FA: 10 mM Tris-HCl pH 8, 50 mM NaCl, 0.5% NP-40, 1 mM DTT, 5% glycerol, 1 nM DNA, 25C (half volume protein elution buffer). Biotin EMSA: LightShift 1x buffer, 50 ng poly(dI-dC), 2.5% glycerol, 0.05% NP-40, 5 mM MgCl2, 20 fmol probe, RT 20 min. 32P EMSA: 10 mM Tris-HCl pH 8.0, 50 mM NaCl, 1 mM DTT, 0.05% NP-40, 100 ng poly(dI-dC), 6% glycerol, 4C 30 min. To be noted: protein: recombinant; tags: GST (N-term); chain copies: 2; label: 5' FAM; blunt.

Another data set deals with T6, GST-Yap8-N20Q (Saccharomyces cerevisiae, UniProt Q06596 1-294, N20Q).
T6 sequence: T1 sequence with K7R, K11R, N20Q
Briefly: EMSA; FA: 10 mM Tris-HCl pH 8, 50 mM NaCl, 0.5% NP-40, 1 mM DTT, 5% glycerol, 1 nM DNA, 25C (half volume protein elution buffer). Biotin EMSA: LightShift 1x buffer, 50 ng poly(dI-dC), 2.5% glycerol, 0.05% NP-40, 5 mM MgCl2, 20 fmol probe, RT 20 min. 32P EMSA: 10 mM Tris-HCl pH 8.0, 50 mM NaCl, 1 mM DTT, 0.05% NP-40, 100 ng poly(dI-dC), 6% glycerol, 4C 30 min. The following applies: protein: recombinant; tags: GST (N-term); chain copies: 2; label: 32P 5'; blunt.

The target in data set [4] is T5, GST-Yap8 WT. The data set is described as above. To be noted: protein: recombinant; tags: GST (N-term); chain copies: 2; label: 32P 5'; blunt.
The target in the next data set is T7, GST-Yap8-N20A (Saccharomyces cerevisiae, UniProt Q06596 1-294, N20A).
T7 sequence: T1 sequence with K7R, K11R, N20A
The description is as above. The following applies: protein: recombinant; tags: GST (N-term); chain copies: 2; label: 32P 5'; blunt.

Changes are numbered by the printed parent chain.

GST-Yap8-7aa A23T;L26N;S29A;N31R;K35E;L37E;E39R (Saccharomyces cerevisiae), sequence (Q06596 whole entry, stated change not applied): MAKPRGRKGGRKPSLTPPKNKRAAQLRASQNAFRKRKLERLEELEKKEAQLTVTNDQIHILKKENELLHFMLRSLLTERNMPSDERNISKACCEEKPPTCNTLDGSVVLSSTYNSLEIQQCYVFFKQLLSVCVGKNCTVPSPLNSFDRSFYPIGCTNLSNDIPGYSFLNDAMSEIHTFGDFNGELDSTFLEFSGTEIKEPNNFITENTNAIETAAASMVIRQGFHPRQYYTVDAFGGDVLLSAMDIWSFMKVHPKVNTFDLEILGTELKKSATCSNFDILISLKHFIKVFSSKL

In the case of “CTTTTTGTTTGATTAATAATCAACTTTAGCG (double strand) [ACR3-WT (FAM)]”, the Kd in [1] worked out at 15.1 nM; in [2] it was 9.3 nM.

B1: ACR3short (WT) (dsDNA)
DNA 1: TCTTAATTATCTTTTTGTTTGATTAATAATCAACTTTAGCGGCAACGCTCC
DNA 2: GGAGCGTTGCCGCTAAAGTTGATTATTAATCAAACAAAAAGATAATTAAGA
Turning to B1, the binding result was “no binding” with GST-Yap8-R7K,R11K, “no binding” in the data set with GST-Yap8-G10A, “binds” with GST-Yap8-4aa and “no binding” with GST-Yap8-R11K.

B2: ACR3-M3 (FAM) (dsDNA)
DNA 1: CTTTGCGGCTGATTAATAATCAACCGGAGCG
DNA 2: CGCTCCGGTTGATTATTAATCAGCCGCAAAG
Take B2: in the data set with GST-Yap8 WT [3], the Kd is 19.4 ± 4.1 nM.

B3: GSH1short (dsDNA)
DNA 1: TTCTGCCCAACGACGGCTGCCATTAGTCAGCATGGCGCGCACGTGACTACA
DNA 2: TGTAGTCACGTGCGCGCCATGCTGACTAATGGCAGCCGTCGTTGGGCAGAA
In the case of B3, the binding result with GST-Yap8-N20Q, in the data set with GST-Yap8 WT [4] and with GST-Yap8-N20A was “no binding” throughout.

B4: TRX2short (dsDNA)
DNA 1: ATTGTTTATACTCTTAGTAAAGGATGCTCCCTACAAGGTGGCTCTTTTCTTACTAAGCGCGTTCAGTTTC
DNA 2: GAAACTGAACGCGCTTAGTAAGAAAAGAGCCACCTTGTAGGGAGCATCCTTTACTAAGAGTATAAACAAT
For B4, the binding result in the data set with GST-Yap8-4aa (label: 32P 5') was “no binding”.

(Values after PMC7261193, “The ancillary N-terminal region of the yeast AP-1 transcription factor Yap8 contributes to its DNA binding specificity”.)
